The values that follow come from patent publication US9274129B2, “Methods and reagents for detecting bioactive lipids” (Lpath, Inc., priority 2006, dated 2016).

The test system of assay [1] is SKOV3 cells. Briefly: Taxol-induced apoptosis (caspase activity). It counts as cell-based, human. The conditions noted are these: Taxol 0.5 mM, 24 h. How it is done:
The ability of LPA to protect ovarian tumor cells against apoptosis when exposed to clinically-relevant levels of the chemotherapeutic agent, paclitaxel (Taxol) was investigated. SKVO3 cells were treated with 1% FBS (S), Taxol (0.5 mM), +/−anti-LPA mAbs for 24 h. […] Apoptosis was assayed by measurement of the caspase activity as recommended by the manufacturer (Promega). As anticipated, LPA protected most of the cancer cell lines tested from taxol-induced cell death. […] Moreover, the anti-LPA antibody was able to remove the protection provided by serum. Serum is estimated to contain about 5-20 mM LPA. […] Taxol-induced caspase activation was enhanced by the addition of all 3 of the anti-LPA mAbs to the culture medium.

Assay [2] is described as follows: Direct ELISA on S1P-coated plates, chimeric antibody and mutants. The assay is classed as binding. The conditions noted are these: antibody 0.1 ug/ml. How it is done: Microtiter ELISA plates (Costar) were coated overnight with S1P diluted in 1 M Carbonate Buffer (pH 9.5) at 37° C. for 1 hr. Plates were washed with PBS (137 mM NaCl, 2.68 mM KCl, 10.1 mM Na2HPO4, 1.76 mM KH2PO4; pH 7.4) and blocked with PBS/BSA/Tween-20 for 1 hr at room temp or overnight at 4° C. For the primary incubation (1 hr at room temp.), a standard curve using the anti-S1P mAb and the samples to be tested for binding was built using the following set of dilutions: 0.4 μg/mL, 0.2 μg/mL, 0.1 μg/mL, 0.05 μg/mL, 0.0125 μg/mL, and 0 μg/mL, and 100 μl added to each well. Plates were washed and incubated with 100 μl per well of HRP conjugated goat anti-mouse (1:20,000 dilution) (Jackson Immuno Research) or HRP conjugated goat anti-human (H+L) diluted 1:50,000 (Jackson Immuno Research) for 1 hr at room temperature. After washing, the enzymatic reaction was detected with tetramethylbenzidine (Sigma) and stopped by adding 1 M H2SO4. The optical density (OD) was measured at 450 nm using a Thermo Multiskan EX. Raw data were transferred to GraphPad software for analysis.
The chromogenic reaction was measured and reported as Optical density (OD). The concentration of the panel of antibodies was 0.1 ug/ml. No interaction of the second antibody with S1P-coated matrix alone was detected.
In general terms: ELISA stands for enzyme-linked immunosorbent assay.

Assay [3] relates to selected human cancer cell lines. As to the kind of experiment: LPA-induced cancer cell proliferation. It counts as cell-based. The settings on record: LPA 0.01 mM to 10 mM, 7 human-derived and one rat-derived line, dose dependent. How it is done:
LPA is a potent growth factor supporting cell survival and proliferation by stimulation of Gi, Gq and G12/13 via GPCR-receptors and activation of downstream signaling events. Cell lines were tested for their proliferative response to LPA ([…]). Cell proliferation was assayed by using the cell proliferation assay kit from Chemicon (Temecula Calif.) (Panc-1) and the Cell-Blue titer from Pierce (Caki-1). Each data point is the mean of three independent experiments. […] Even though tumor-derived cells normally have high basal levels of proliferation, LPA appears to further augment proliferation in most tumor cell lines. Anti-LPA mAbs (B7 and B58) were assessed for the ability to inhibit LPA-induced proliferation in selected human cancer cell lines.

Assay [4] relates to Caki-1 cells. Briefly: In vitro IL-8 production, Caki-1. It counts as cell-based, human. The settings on record: 18:1 LPA 0.2 mM, 24 h, cells without mAb. As to the method:
Three anti-LPA mAbs (B3, B7 and B58) were tested for their abilities to reduce in vitro IL-8 production compared to a non-specific antibody (NS). Caki-1 cells were seeded in 96 well plates and grown to confluency. After overnight serum starvation, cells were treated with 18:1 LPA (0.2 mM) with or without anti-LPA mAb B3, B7, B58 or NS (Non-Specific). After 24 h, cultured supernatants of renal cancer cells (Caki-1), treated with or without LPA and in presence of increasing concentrations of the anti-LPA mAbs B3, B7 and B58, were collected and analyzed for IL-8 levels using a commercially available ELISA kit (Human Quantikine Kit, R&D Systems, Minneapolis, Minn.). […] Similar results were obtained with the other well-known pro-angiogenic factor, VEGF. The inhibition of IL-8 release by the anti-LPA mAbs was also observed in other cancerous cell lines such as the pancreatic cell line Panc-1.

Assay [5] can be described thus: ELISA with exchanged crosslinker or protein carrier in the laydown material. It counts as binding. The source says: For example, the normal crosslinker SMCC was exchanged for IOA in conjugating the thiolated-S1P to BSA as the laydown material in the ELISA. […] Similarly, KLH was exchanged for BSA as the protein that was complexed with thiolated-S1P as the laydown material.

Assay [6] in a line: Competitive ELISA of anti-S1P mAb, competitor DH-S1P. It counts as binding. As to the method:
(§1) Screening of serum and cell supernatant for SIP-specific antibodies was by direct ELISA using the thiolated S1P analog described in Example 1 (i.e., compound 10) as the antigen. A standard ELISA was performed, as described below, except that 50 ul of sample (serum or cell supernatant) was diluted with an equal volume of PBS/0.1% Tween-20 (PBST) during the primary incubation. ELISAs were performed in 96-well high binding ELISA plates (Costar) coated with 0.1 μg of chemically-synthesized compound 10 conjugated to BSA in binding buffer (33.6 mM Na2CO3, 100 mM NaHCO3; pH 9.5). The thiolated-S1P-BSA was incubated at 37° C. for 1 hr. at 4° C. overnight in the ELISA plate wells. The plates were then washed four times with PBS (137 mM NaCl, 2.68 mM KCl, 10.14 mM Na2HPO4, 1.76 mM KH2PO4; pH 7.4) and blocked with PBST for 1 hr. at room temperature. For the primary incubation step, 75 uL of the sample (containing the S1P to be measured), was incubated with 25 uL of 0.1 ug/mL anti-S1P mAb diluted in PBST and added to a well of the ELISA plate. […] Optical density of the samples was determined by measurement at 450 nm using an EL-X-800 ELISA plate reader (Bio-Tech).
(§2) For cross reactivity, a competitive ELISA was performed as described above, except for the following alterations (FIG. 4). […] Biotin incorporation was determined as per kit protocol and ranged from 7 to 11 biotin molecules per antibody. […]

A short description of assay [7]: Competitive ELISA of anti-S1P mAb, competitor LPA. It counts as binding. How it is done:
as §1, §2

A short description of assay [8]: Competitive ELISA of anti-S1P mAb, competitor S1P. It counts as binding. As to the method:
as §1, §2

The nature of assay [9]: Competitive ELISA of anti-S1P mAb, competitor C1P. The assay is classed as binding. As to the method: as §1, §2
Assay [10] in a line: Competitive ELISA of anti-S1P mAb, competitor SPC. It counts as binding. How it is done: as §1, §2

“Also recorded” adds a separate entry of the source.

For the molecule `CC(=O)O[C@H]1C(=O)[C@@]2(C)[C@H]([C@H](OC(=O)c3ccccc3)[C@]3(O)C[C@H](OC(=O)[C@H](O)[C@@H](NC(=O)c4ccccc4)c4ccccc4)C(C)=C1C3(C)C)[C@]1(OC(C)=O)CO[C@@H]1C[C@@H]2O` [Taxol, paclitaxel], the “caspase-3,7 activation” value in assay [1] was “induced caspase-3,7 activation”.
Turning to CysPhe, the Binding in assay [2] was 2 OD.
Turning to MetLeu, the Binding in [2] was 1.6 OD.
As for lysophosphatidic acid [LPA], in assay [3], the “proliferation of tumor cell lines” value is “increased proliferation”. Further, the “increase of IL-8 expression” value in [4] is recorded as 100%.

B1: anti-S1P mAb: murine monoclonal antibody directed against S1P from hybridoma clone 306D326.26 (ATCC SD-5362) (antibody, listed as Mus musculus, V domains shown)
VH: QAHLQQSDAELVKPGASVKISCKVSGFIFIDHTIHWMKQRPEQGLEWIGCISPRHDITKYNEMFRGKATLTADKSSTTAYIQVNSLTFEDSAVYFCARGGFYGSTIWFDFWGQGTTLTVS
VL: ETTVTQSPASLSMAIGEKVTIRCITTTDIDDDMNWFQQKPGEPPNLLISEGNILRPGVPSRFSSSGYGTDFLFTIENMLSEDVADYYCLQSDNLPFTFGSGTKLEIK
With B1, the “binding characteristics with KLH exchanged for BSA as carrier” value in [5] (laydown thiolated-S1P complexed with protein) was “no significant difference”. Also, the “binding characteristics with IOA instead of SMCC as crosslinker” value in assay [5] (laydown thiolated-S1P conjugated to BSA, compared with BSA-SMCC-thiolated-S1P) is “nearly identical”. The “competition by free DH-S1P for mAb binding to S1P on the plate” value in assay [6] was “can compete for binding”. The “antibody binding to LPA” value in assay [7] was “no binding”. Moreover, in [8], the “competition by free S1P for mAb binding to S1P on the plate” value is recorded as “can compete for binding” and the “distinction of thiolated-S1P analog (compound 10) from natural S1P” value is given as “unable to distinguish”. Also, in [9], the “antibody binding to C1P” value was “no antibody binding was observed”. In [10], the “competition by SPC for mAb binding to S1P on the plate” value was “somewhat reduced; also recorded: only slightly competes for binding”.
